The text below walks through data of publication PMC2905227 (Journal of the American Chemical Society, 2010).

Holding throughout (assay): competitive inhibition of enzyme activity
Assay [1] concerns the target T1, wild-type E. coli ribonucleotide reductase α2 subunit (E. coli, UniProt P00452 1-761).
T1 sequence (looked up): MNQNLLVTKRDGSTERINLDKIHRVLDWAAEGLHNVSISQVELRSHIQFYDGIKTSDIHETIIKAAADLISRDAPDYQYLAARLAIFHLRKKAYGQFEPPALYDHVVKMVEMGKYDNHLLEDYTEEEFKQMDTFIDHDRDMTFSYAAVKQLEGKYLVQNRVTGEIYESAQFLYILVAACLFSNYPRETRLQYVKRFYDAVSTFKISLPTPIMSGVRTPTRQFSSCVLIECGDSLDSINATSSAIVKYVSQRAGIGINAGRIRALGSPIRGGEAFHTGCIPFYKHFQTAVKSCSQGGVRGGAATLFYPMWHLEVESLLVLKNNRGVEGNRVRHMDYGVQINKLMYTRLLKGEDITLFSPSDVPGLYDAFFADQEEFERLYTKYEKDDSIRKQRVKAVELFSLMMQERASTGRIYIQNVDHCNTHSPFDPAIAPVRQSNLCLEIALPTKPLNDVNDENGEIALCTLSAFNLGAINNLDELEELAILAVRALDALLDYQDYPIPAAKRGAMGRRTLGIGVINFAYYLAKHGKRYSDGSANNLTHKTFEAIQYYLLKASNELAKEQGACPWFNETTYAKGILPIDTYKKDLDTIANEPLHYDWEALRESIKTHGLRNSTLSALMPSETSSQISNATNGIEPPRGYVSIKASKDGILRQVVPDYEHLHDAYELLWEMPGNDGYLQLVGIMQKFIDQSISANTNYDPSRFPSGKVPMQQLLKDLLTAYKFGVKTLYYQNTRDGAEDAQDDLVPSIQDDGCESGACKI

Assay [2] concerns the target T2, [NO2Y730]-α2(Y731F) (E. coli, UniProt P00452 1-761, Y731F, 3-nitrotyrosine (NO2Y) in place of Y730).
T2 sequence (looked up): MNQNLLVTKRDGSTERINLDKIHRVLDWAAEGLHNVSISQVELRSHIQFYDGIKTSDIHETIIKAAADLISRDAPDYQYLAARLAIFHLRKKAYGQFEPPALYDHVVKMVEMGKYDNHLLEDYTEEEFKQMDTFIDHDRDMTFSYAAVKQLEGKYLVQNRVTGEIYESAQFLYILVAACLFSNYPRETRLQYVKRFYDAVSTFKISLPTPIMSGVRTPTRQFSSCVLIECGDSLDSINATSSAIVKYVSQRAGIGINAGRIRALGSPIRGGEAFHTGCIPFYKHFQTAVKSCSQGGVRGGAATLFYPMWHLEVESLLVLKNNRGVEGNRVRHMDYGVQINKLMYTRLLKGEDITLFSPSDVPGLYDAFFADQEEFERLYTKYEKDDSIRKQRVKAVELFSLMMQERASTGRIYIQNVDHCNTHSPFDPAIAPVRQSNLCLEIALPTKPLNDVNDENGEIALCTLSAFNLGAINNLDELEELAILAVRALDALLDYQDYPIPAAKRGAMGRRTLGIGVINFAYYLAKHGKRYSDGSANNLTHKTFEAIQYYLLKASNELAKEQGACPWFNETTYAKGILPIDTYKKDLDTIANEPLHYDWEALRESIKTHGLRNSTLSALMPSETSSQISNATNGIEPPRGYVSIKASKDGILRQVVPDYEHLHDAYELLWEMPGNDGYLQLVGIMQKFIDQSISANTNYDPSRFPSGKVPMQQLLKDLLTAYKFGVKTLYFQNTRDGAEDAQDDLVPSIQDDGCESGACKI

The target of assay [3] is T3, [NO2Y730]-α2(C439S) (E. coli, UniProt P00452 1-761, C439S, 3-nitrotyrosine (NO2Y) in place of Y730).
T3 sequence (looked up): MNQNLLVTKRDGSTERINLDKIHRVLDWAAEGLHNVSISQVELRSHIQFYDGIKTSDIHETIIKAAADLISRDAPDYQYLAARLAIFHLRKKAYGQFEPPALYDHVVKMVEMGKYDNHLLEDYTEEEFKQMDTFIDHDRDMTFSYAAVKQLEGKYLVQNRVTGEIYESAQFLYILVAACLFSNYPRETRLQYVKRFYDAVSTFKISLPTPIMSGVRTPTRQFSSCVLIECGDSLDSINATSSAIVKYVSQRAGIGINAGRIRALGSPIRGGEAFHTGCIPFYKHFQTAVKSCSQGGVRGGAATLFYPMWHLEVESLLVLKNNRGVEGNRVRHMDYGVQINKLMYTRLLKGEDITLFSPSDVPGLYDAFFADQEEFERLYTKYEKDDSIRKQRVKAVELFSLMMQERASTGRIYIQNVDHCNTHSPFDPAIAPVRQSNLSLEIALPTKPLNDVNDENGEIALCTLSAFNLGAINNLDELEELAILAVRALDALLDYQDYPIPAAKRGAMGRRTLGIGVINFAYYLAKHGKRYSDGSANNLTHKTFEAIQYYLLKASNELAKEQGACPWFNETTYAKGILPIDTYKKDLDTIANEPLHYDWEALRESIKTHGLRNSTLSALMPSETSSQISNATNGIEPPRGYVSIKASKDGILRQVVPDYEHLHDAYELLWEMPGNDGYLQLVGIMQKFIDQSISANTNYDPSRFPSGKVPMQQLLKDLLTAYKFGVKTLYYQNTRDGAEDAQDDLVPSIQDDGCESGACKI

What is called Kd is a measure of binding affinity in units of concentration. Lower therefore signals tighter binding.

B1: wild-type E. coli ribonucleotide reductase β2 subunit (enzyme, UniProt P69924 1-376, looked up)
chain: MAYTTFSQTKNDQLKEPMFFGQPVNVARYDQQKYDIFEKLIEKQLSFFWRPEEVDVSRDRIDYQALPEHEKHIFISNLKYQTLLDSIQGRSPNVALLPLISIPELETWVETWAFSETIHSRSYTHIIRNIVNDPSVVFDDIVTNEQIQKRAEGISSYYDELIEMTSYWHLLGEGTHTVNGKTVTVSLRELKKKLYLCLMSVNALEAIRFYVSFACSFAFAERELMEGNAKIIRLIARDEALHLTGTQHMLNLLRSGADDPEMAEIAEECKQECYDLFVQAAQQEKDWADYLFRDGSMIGLNKDILCQYVEYITNIRMQAVGLDLPFQTRSNPIPWINTWLVSDNVQVAPQEVEVSSYLVGQIDSEVDTDDLSNFQL
modifications: tyrosyl radical at Y122 (1-1.2 radicals per β2), diferric cluster
For the molecule B1, the binding result in assay [1] is listed as “binds”. Besides, the Kd amounted to 1450 ± 140 nM in assay [2] and 1280 ± 70 nM in assay [3].
